# Source: the DeepSol protein solubility set
# Experiment: soluble on expression in E. coli; label from the status in PepcDB or PDB records
row,Sequence,soluble on expression in E. coli
1,MSCVHYKFSSKLNYDTVTFDGLHISLCDLKKQIMGREKLKAADCDLQITNAQTKEEYTDDNALIPKNSSVIVRRIPIGGVKSTSKTYVISRTEPAMATTKAIDDSSASISLAQLTKTANLAEANASEEDKIKAMMSQSGHEYDPINYMKKPLGPPPPSYTCFRCGKPGHYIKNCPTNGDKNFESGPRIKKSTGIPRSFMMEVKDPNMKGAMLTNTGKYAIPTIDAGRLLFHKLGTMGHKQIDTYFWNRGDVYGATATQITHLREAYAIGKKEKPPFLPEEPSSSSEEDDPIPDELLCLICKDIMTDAVVIPCCGNSYCDECIRTALLESDEHTCPTCHQNDVSPDALIANKFLRQAVNNFKNETGYTKRLRKQLPPPPPPIPPPRPLIQRNLQPLMRSPISRQQDPLMIPVTSSSTHPAPSISSLTSNQSSLAPPVSGNPSSAPAPVPDITATVSISVHSEKSDGPFRDSDNKILPAAALASEHSKGTSSIAITALMEEKGYQVPVLGTPSLLGQSLLHGQLIPTTGPVRINTARPGGGRPGWEHSNKLGYLVSPPQQIRRGERSCYRSINRGRHHSERSQRTQGPSLPATPVFVPVPPPPLYPPPPHTLPLPPGVPPPQFSPQFPPGQPPPAGYSVPPPGFPPAPANLSTPWVSSGVQTAHSNTIPTTQAPPLSREEFYREQRRLKEEEKKKSKLDEFTNDFAKELMEYKKIQKERRRSFSRSKSPYSGSSYSRSSYTYSKSRSGSTRSRSYSRSFSRSHSRSYSRSPPYPRRGRGKSRNYRSRSRSHGYHRSRSRSPPYRRYHSRSRSPQAFRGQSPNKRNVPQGETEREYFNRYREVPPPYDMKAYYGRSVDFRDPFEKERYREWERKYREWYEKYYKGYAAGAQPRPSANRENFSPERFLPLNIRNSPFTRGRREDYVGGQSHRSRNIGSNYPEKLSARDGHNQKDNTKSKEKESENAPGDGKGNKHKKHRKRRKGEESEGFLNPELLETSRKSREPTGVEENKTDSLFVLPSRDDATPVRDEPMDAESITFKSVSEKDKRERDKPKAKGDKTKRKNDGSAVSKKENIVKPAKGPQEKVDGERERSPRSEPPIKKAKEETPKTDNTKSSSSSQKDEKITGTPRKAHSKSAKEHQETKPVKEEKVKKDYSKDVKSEKLTTKEEKAKKPNEKNKPLDNKGEKKKKK,soluble
2,MSCVQQQRRSTGLRIAERLNKYITLPNRHSFTVDSKDVFQRGQVLSYIRSKAPFLLEHISEAKERLITVTSRGLMIIYENDDHGLVIDLRSARNVLCTADRSKKQRHFRCHIKIRMQRGNVHLFVGHNDVHKWTCAIMRAAGKCLPSTEPRDDGSLNVAMMTAVEDSGIFEEMSSTSSASYDYDEDDEVDEVKPTAIEQIPLPHVSVRSLRQKLEKELVLKPKEQVLAEQQHKANCDEPSFVSEIFCTPRAVFSDETVVLLEPTNARERREYEAQADRENQWWTRSLRC,not soluble
3,MSDDEIGDGARAFNQLIQALSLSIETETAVRTFTEMLVSELDVHQLTEQALALLLQHTGADGGAILIEVDGEIRVAASQGIGSAHTLANNDRVRSALRTERRHRVQLPEDLVVDGMLAQFRPKEVIIDPVRHKEVVLGAVVLASGQGFSAEDRNRLDVFERGLALALHNALLYDRLQTLAALDPLTGALEHHHHHH,soluble
4,MSDELSVKRHKSDPDESIEEIMPEIRPPLTRTHKIVRDESGKHNLLLILTGSIAVMKAPELISELYEKIGRDRILIKVVTTENAMKLCHIQKLEFDEIVYEDRDEWSMWRERGDKVLHIELRKWADSALIAPLDANTMAKIANGLCDNLVTSIIRAWDLSKPCYFAPAMNTHMWENPLTMQHRTVLKSQLKFKEICPIQKELICGDVGTGAMASIGTIVSLVAALVRDQQAVRIQCG,not soluble
5,MSDHPGPGAVTPELFGVGGDWLAVTAGESGASVFRAADATRYAKCVPAADAAGLEAERDRIAWLSGQGVPGPRVLDWYAGDAGACLVTRAVPGVPADRVGADDLRTAWGAVADAVRRLHEVPVASCPFRRGLDSVVDAARDVVARGAVHPEFLPVEQRLVPPAELLARLTGELARRRDQEAADTVVCHGDLCLPNIVLHPETLEVSGFIDLGRLGAADRHADLALLLANARETWVDEERARFADAAFAERYGIAPDPERLRFYLHLDPLTWG,not soluble
6,MSDILLGKLATEFKTVKAMVEVYCHDHHGTKDALCSECRELLEYAEVRLDRCPYGEEKPTCNKCPIHCYKPEPKEQMRLVMRYSGPRMLLKHPILAVRHLLHEKREVPEKPAANASNRHKRINAERDT,not soluble
7,MSDITLREAQKSVDQWIKTLGIRYFNELTNMAILTEEVGEVARIIARRYGEQSEKESDKSKDLADEMADVLWVLLCLANQTGVDLTTAFHKNIEKKTVRDKERHQQNTKLHNNGSK,soluble
8,MSDLSAQLSAFKNKIKSGPSVIVPRKATFTQSPSSPLSSSTTTTTSKNDANVKKRSTTDSVTRVLKKQKANMGEMTGSHLSTQLHLAVEYIKEHDQPISVEKLQNYLSFDISHTLLPLLNEIDRVKYDESKGTLEYVSLHNIRSSDDLLEFLRRQTTFKGTSVKELKDGWAGCVAAIDELESQGKILVLRNKKENAPRLVWANNGGELGYIDTEFKDMWDQVKLPEPDVLYQKLLDQGLKPTGADPNLIKKQPQQKEKKQKKARRGKITNTHMKGILKDYSQLV,soluble
9,MSDMTDMLEDEMIDPVTGEIIDQKDLAERLLAQAKEQGVSLVGPGGLLNQLTKNVLETALNAELTEYLGHEHGETPLGSNMRNGPRTKTVLTVESGRFRSRSRGTVTGRSSR,not soluble
10,MSDNNDRMYELEYPSPEVSGQTAGGPTLIVALQGYADAGHAVESSSSHLMDALDHRLIASFNNDELIDYRSRRPVVVIEHNEVTSMDELNLGLHVVRDNDNKPFLMLSGPEPDLRWGDFSNAVVDLVEKFGVENTICLYAAPMTVPHTRPTVVTAHGNSTDRLKDQVSLDTRMTVPGSASLMLEKLLKDKGKNVSGYTVHVPHYVSASPYPAATLKLLQSIADSADLNLPLLALERDAEKVHRQLMEQTEESSEIQRVVGALEQQYDSE,not soluble
11,MSDNNDRMYELEYPSPEVSGQTAGGPTLIVALQGYADAGHAVESSSSHLMDALDHRLIASFNNDELIDYRSRRPVVVIEHNEVTSMDELNLGLHVVRDNDNKPFLMLSGPEPDLRWGDFSNAVVDLVEKFGVENTICLYAAPMTVPHTRPTVVTAHGNSTDRLKDQVSLDTRMTVPGSASLMLEKLLKDKGKNVSGYTVHVPHYVSASPYPAATLKLLQSIADSADLNLPLLALERDAEKVHRQLMEQTEESSEIQRVVGALEQQYDSELERYRNRHPQAVMPGESELPSGDEIGAEFEKFLADLDDQGGSDHKETPEA,soluble
12,MSDQMRIPCVIMRAGTSKGIFLKGNDLPADQELRDKVILRIFGSPDVRQIDGLAGADPLTSKLAIIGPSTHPDADVDYTFAQVSITDAVVDYNGNCGNISAGVGPFAIDESFVKAVEPMTRVCIHNTNTGKLLYAEVEVEDGKAKVSGDCKIDGVPGTNAPELMDFSDTAGAATGKVLPTGNVVDVLSTSKGDIDVSIVDVANPCIFVHAKDVNMTGTETPDVINGNADLLAYLEEIRAKCCVKIGMAATEKEASEKSPAFPMIAFVTKPEDYVDFSTGNTISGDDVDLVSRLMFMQVLHKTYAGTATACTGSAARIPGTIVNQVLRDTGDEDTVRIGHPAGVIPVVSIVKDGKVEKAALIRTARRIMEGYVYVEKAKLVGSAWSHPQFEK,soluble
13,MSDRNCYKCQQPGHISRNCPNGESDGGRRGGGGGSTCYNCQETGHFSRDCPKGGSGGGQRGGGGGGGSCYNCGGRGHYSRDCPSARSEGGSGGYGGRGGEGRSFGGQKCYNCGRSGHISRECTESGSAEEKRCYQCQETGHISRDCPSQTN,soluble
14,MSDSPKNAPRITDEADVVLIGAGIMSSTLGAMLRQLEPSWTQIVFERLDGPAQESSSPWNNAGTGHSALCELNYTPEVKGKVEIAKAVGINEKFQVSRQFWSHLVEEGVLSDPKEFINPVPHVSFGQGADQVAYIKARYEALKDHPLFQGMTYADDEATFTEKLPLMAKGRDFSDPVAISWIDEGTDINYGAQTKQYLDAAEVEGTEIRYGHEVKSIKADGAKWIVTVKNVHTGDTKTIKANFVFVGAGGYALDLLRSAGIPQVKGFAGFPVSGLWLRCTNEELIEQHAAKVYGKASVGAPPMSVPHLDTRVIEGEKGLLFGPYGGWTPKFLKEGSYLDLFKSIRPDNIPSYLGVAAQEFDLTKYLVTEVLKDQDKRMDALREYMPEAQNGDWETIVAGQRVQVIKPAGFPKFGSLEFGTTLINNSEGTIAGLLGASPGASIAPSAMIELLERCFGDRMIEWGDKLKDMIPSYGKKLASEPALFEQQWARTQKTLKLEEALEHHHHHH,not soluble
15,MSDSQEQLISSENTEVDKQAEEDRKLRRLNRRKALALERSPLPVPKLGRVLLSANSTIDLTNEDDDPSNKWFKKTFNAEKIPKLAKSPEEAKLFAVPRKISKNAPKSLLTSETLKKKLQASMSAKRRKEQEQRRKMYEEDNEHLKAGSDEEEEEDVVFKKKKGKKPVNEEEYKSEDDEDYEPENSGEEDSDEKNNGRADDEMSVNLLNDSFTYDVFNNVKRSGPGSTVSNFDSRSEADVVEKNGVVQLPTMTEITGGSNDILNLCPGSFGVSQSAGFPDTLQMLIEEDTTERKINLPQNSTSVSSDKPRLEESESEDEDDVGVKRRLPAVKNHRVLDSDEEDDVIEETLPSQDVFGSGTLEDSETIKEICEKSGEFTEKIETVLEEKTELKRVVLSDGEDSDEEAEEAEEEGDDEEEPEEDDIESENDEAETEGVEAPDPNFDDEDDELAILKRLQHQEYKQKIKKRTLFDDEASLSGDDVGSDLEDEEGMENVYEAEEGDADDVPDNDTIRRQNHKLLLKQENDKEQRELAKLQDRLLADGDLGGVETNRQFRFKLREEVQIQMGDDVDGNDGDGEDDEPEEDEQKKKERAEMIKFKYEHAEELMLLDEPKQGDDMFARAGKLFKKTEKTVIEFSEETMFKPRLSKPSLLSKTTLAVTFQEVLNGPGGAAKQMYVQSFEKPTPLSTGHISSPSSRLSTGKRLLKSPESSASAKRVRSSKLSSLE,not soluble
16,MSDVAIVKEGWLHKRGEYIKTWRPRYFLLKNDGTFIGYKERPQDVDQREAPLNNFSVAQCQLMKTERPRPNTFIIRCLQWTTVIERTFHVETPEEREEWTTAIQTVADGLKKQEEEEMDFRSG,soluble
17,MSDVKGKSTSGRGLTPKQEKFCQLYIELGNASEAYRQSYDCSKMTTEVINVKASELLNKNGKITVRVEELRQAHQQRHNLTLDNIIADLQEYRDICMGRKPLTITTVVKNAQEGTAQSVNTECFVFEPTGANKALELLGKHLGMFTNKVDVTTDGKPLPTVINVTFSDEPA,not soluble
18,MSDWSPMHEAAIHGHQLSLRNLISQGWAVNIITADHVSPLHEACLGGHLSCVKILLKHGAQVNGVTADWHTPLFNACVSGSWDCVNLLLQHGASVQPESDLASPIHEAARRGHVECVNSLIAYGGNIDHKISHLGTPLYLACENQQRACVKKLLESGADVNQGKGQDSPLHAVARTASEELACLLMDFGADTQAKNAEGKRPVELVPPESPLAQLFLEREGPPSLMQLCRLRIRKCFGIQQHHKITKLVLPEDLKQFLLHL,soluble
19,MSDYQMFEVQVSQVEPLTEQVKRFTLVATDGKPLPAFTGGSHVIVQMSDGDNQYSNAYSLLSSPHDTSCYQIAVRLEENSRGGSRFLHQQVKVGDRLTISTPNNLFALIPSARKHLFIAGGIGITPFLSHMAELQHSDVDWQLHYCSRNPESCAFRDELVQHPQAEKVHLHHSSTGTRLELARLLADIEPGTHVYTCGPEALIEAVRSEAARLDIAADTLHFEQFAIEDKTGDAFTLVLARSGKEFVVPEEMTILQVIENNKAAKVECLCREGVCGTCETAILEGEADHRDQYFSDEERASQQSMLICSRAKGKRLVLDL,soluble
